Paper PMC12583694, “RNF114 and RNF166 exemplify reader-writer E3 ligases that extend K11 polyubiquitin onto sites of MARUbylation” (The EMBO Journal, 2025)

Target: ADPr-TAMRA (ADPrT)
Test: fluorescence polarisation
Details: read at the highest titration point, about 75 µM RNF114 (left graph); parent: est. 50; read off a plot

Row | response | Substance
1 | 13 | RNF114 (wild type, full-length) (from UniProt Q9Y508) R198E
2 | 6 | RNF114 (wild type, full-length) (from UniProt Q9Y508) W181D; G182E
